Assay results as given in paper PMC10776578, “Epstein-Barr virus-driven B cell lymphoma mediated by a direct LMP1-TRAF6 complex” (Nature Communications, 2024).
Entries after “also recorded” stand apart in the source; their conditions may differ.

Legend:
GST-RANK314-355 = assay: AlphaScreen PPI, TRAF6 mutants binding to RANK; parameters: species or system human; conditions: for effect of TRAF6 mutation on binding to RANK (in words): AlphaScreen PPI; for TRAF6 binding to RANK (AlphaScreen), mean / TRAF6 binding to RANK (AlphaScreen): Figure 2c; for TRAF6 binding to RANK (AlphaScreen), mean: mean of n = 4
Experimental: Fig. 2 LMP1 binds to the receptor-interacting surface of TRAF6. a Mutations within the receptor-interacting surface of TRAF6 affect binding to LMP1. The TRAF6 mutants R392A, K469A, F471A, and Y473A were tested LMP1 in AlphaScreen PPI experiments with GST-LMP1_181-386. Data are mean values ± SD of three independent experiments. Statistics: one-way ANOVA. b TRAF6 R392A differentiates between CD40 and LMP1/RANK. AlphaScreen PPI experiments with GST-CD40_216-277. Data are mean values ± SD of three independent experiments. […] AlphaScreen PPI experiments with GST-RANK314-355. Data are mean values ± SD of four independent experiments. Statistics: one-way ANOVA. d TRAF6 mutants that fail to interact with LMP1 in PPI assays are also unable to bind cellular LMP1. HEK293 cells were co-transfected with HA-LMP1 and the indicated Flag-TRAF6 mutants. Flag-TRAF6 was immunoprecipitated (IP) via its Flag-tag and coprecipitated HA-LMP1 was detected on immunoblots by an α-HA antibody. Uncropped blots in Supplementary Fig. 6b. For statistical analysis LMP1 signals were digitalized and quantified (graph). Data are mean values ± SD of three independent experiments. […] TRAF6 recruitment is dependent on amino acids 371 − 386 of LMP1 (small panel). Confocal microscopy images show representative cells of three independent experiments. Quantitative data are mean values ± SD of ten randomly selected cells per transfection of one representative experiment (graph). Scale bars: 10 µm. Statistics: one-way ANOVA. p-values: *p ≤ 0.05, **p ≤ 0.01, ***p ≤ 0.001, ****p ≤ 0.0001. Source data and exact p-values in the Source Data file.
(§1) AlphaScreen experiments were performed in 96- or 384-well plates (Perkin Elmer, OptiPlate). In both assay formats, His-TRAF and GST-LMP1, GST-CD40, or GST-RANK proteins were incubated together in 40 µL of PBS (protein concentrations were calculated to the final reaction volume of 60 µL) supplemented with 0.5% BSA (Sigma, #A7030) and 0.1% Tween-20 (AppliChem, #A4974), for 1 h at room temperature (RT). If not indicated otherwise, standard protein concentrations were 300 nM for His-TRAF proteins and 100 nM for GST-LMP1 proteins. Ni-NTA-acceptor (Perkin Elmer, #6760619 C) and GST-acceptor (Perkin Elmer, # 6765300) beads were added each to a final concentration of 1–4 µg per mL in a final reaction volume of 60 µL and incubated for 1 h at RT in the dark. AlphaScreen PPI signals were measured in a CLARIOstar reader (BMG Labtech GmbH).

GST-LMP1 Q381E = assay: AlphaScreen PPI, TRAF6 mutants binding to LMP1 Q381E; parameters: species or system Epstein-Barr virus; conditions: for interaction with LMP1 Q381E (in words): AlphaScreen PPI, four independent experiments; for TRAF6 binding to LMP1 Q-E, AlphaScreen (relative), Supplementary Figure 2 a: mean of wt = 100; for TRAF6 binding to LMP1 Q-E, AlphaScreen (relative), mean: wt = 100, mean of n = 4
Experimental: as §1, with “GmbH). […]” for “GmbH).”
Supplementary Figure 2. LMP1 Q381E interaction with TRAF6 and additional controls to
experiments. Data are mean values ± SD of four independent experiments. Statistics: one -way
ANOVA. p-values: ****p ≤ 0.0001. Source data in the Source Data file. […]

Molecule	effect of TRAF6 mutation on binding to RANK (in words) (GST-RANK314-355)	TRAF6 binding to RANK (AlphaScreen), mean (GST-RANK314-355)	TRAF6 binding to RANK (AlphaScreen) (GST-RANK314-355; replicate 1)	TRAF6 binding to RANK (AlphaScreen) (GST-RANK314-355; replicate 2)	TRAF6 binding to RANK (AlphaScreen) (GST-RANK314-355; replicate 3)	TRAF6 binding to RANK (AlphaScreen) (GST-RANK314-355; replicate 4)	interaction with LMP1 Q381E (in words) (GST-LMP1 Q381E)	TRAF6 binding to LMP1 Q-E, AlphaScreen (relative), Supplementary Figure 2 a (GST-LMP1 Q381E; replicate 1)	TRAF6 binding to LMP1 Q-E, AlphaScreen (relative), Supplementary Figure 2 a (GST-LMP1 Q381E; replicate 2)	TRAF6 binding to LMP1 Q-E, AlphaScreen (relative), Supplementary Figure 2 a (GST-LMP1 Q381E; replicate 3)	TRAF6 binding to LMP1 Q-E, AlphaScreen (relative), Supplementary Figure 2 a (GST-LMP1 Q381E; replicate 4)	TRAF6 binding to LMP1 Q-E, AlphaScreen (relative), mean (GST-LMP1 Q381E)
R392A (protein, UniProt Q9Y4K3 1-522, looked up, variant R392A) TNF receptor-associated …: MSLLNCENSCGSSQSESDCCVAMASSCSAVTKDDSVGGTASTGNLSSSFMEEIQGYDVEFDPPLESKYECPICLMALREAVQTPCGHRFCKACIIKSIRDAGHKCPVDNEILLENQLFPDNFAKREILSLMVKCPNEGCLHKMELRHLEDHQAHCEFALMDCPQCQRPFQKFHINIHILKDCPRRQVSCDNCAASMAFEDKEIHDQNCPLANVICEYCNTILIREQMPNHYDLDCPTAPIPCTFSTFGCHEKMQRNHLARHLQENTQSHMRMLAQAVHSLSVIPDSGYISEVRNFQETIHQLEGRLVRQDHQIRELTAKMETQSMYVSELKRTIRTLEDKVAEIEAQQCNGIYIWKIGNFGMHLKCQEEEKPVVIHSPGFYTGKPGYKLCMALHLQLPTAQRCANYISLFVHTMQGEYDSHLPWPFQGTIRLTILDQSEAPVRQNHEEIMDAKPELLAFQRPTIPRNPKGFGYVTFMHLEALRQRTFIKDDTLLVRCEVSTRFDMGSLRREGFQPRSTDAGV	do not bind to RANK; also recorded: prevented the interaction of TRAF6 with LMP1 and RANK	0.1	0.1	0.1	0.1	0.1	fail to interact with LMP1 Q381E; also recorded: unable to override the negative effect of R392A mutation	8.4	4.1	6.1	4.8	5.85
F471A (protein, UniProt Q9Y4K3 1-522, looked up, variant F471A) TNF receptor-associated …: MSLLNCENSCGSSQSESDCCVAMASSCSAVTKDDSVGGTASTGNLSSSFMEEIQGYDVEFDPPLESKYECPICLMALREAVQTPCGHRFCKACIIKSIRDAGHKCPVDNEILLENQLFPDNFAKREILSLMVKCPNEGCLHKMELRHLEDHQAHCEFALMDCPQCQRPFQKFHINIHILKDCPRRQVSCDNCAASMAFEDKEIHDQNCPLANVICEYCNTILIREQMPNHYDLDCPTAPIPCTFSTFGCHEKMQRNHLARHLQENTQSHMRMLAQAVHSLSVIPDSGYISEVRNFQETIHQLEGRLVRQDHQIRELTAKMETQSMYVSELKRTIRTLEDKVAEIEAQQCNGIYIWKIGNFGMHLKCQEEEKPVVIHSPGFYTGKPGYKLCMRLHLQLPTAQRCANYISLFVHTMQGEYDSHLPWPFQGTIRLTILDQSEAPVRQNHEEIMDAKPELLAFQRPTIPRNPKGAGYVTFMHLEALRQRTFIKDDTLLVRCEVSTRFDMGSLRREGFQPRSTDAGV	do not interact	0.725	0.2	0.4	0.2	2.1	fail to interact with LMP1 Q381E; also recorded: unable to override the negative effect	4.8	2.2	3.4	2.2	3.15
